Results on one protein are retold here after paper PMC4370742, “Expression, purification, and characterization of galactose oxidase of Fusarium sambucinum in E. coli” (Protein Expression and Purification, 2015).

Substrate in series [1]: OC[C@H]1O[C@H](OC[C@H]2O[C@H](O[C@]3(CO)O[C@H](CO)[C@@H](O)[C@@H]3O)[C@H](O)[C@@H](O)[C@@H]2O)[C@H](O)[C@@H](O)[C@H]1O
Description: purified protein. The following applies: O2 at air saturation, 20 mM potassium phosphate pH 7.0, 30 °C, Cu-activated enzyme. The series is classed as biochemical, Fusarium sambucinum.

Substrate in series [2]: CO[C@@H]1O[C@H](CO)[C@H](O)[C@H](O)[C@H]1O
Description: purified protein. The format is biochemical, Fusarium sambucinum. The conditions noted are these: O2 at air saturation, 20 mM potassium phosphate pH 7.0, 30 °C, Cu-activated enzyme.

B1: galactose oxidase (GalOx) of Fusarium sambucinum (Fusarium sambucinum) (protein)
chain: ASAPIGSAISRNNWAVTCDSAQPGNECNKAIDGNRDTFWHTFYGANGDPKPPHTYNIDMKTTQNVNGLSMLPRQDGSQNGWIGRHEVYLSSDGKTWGSPVATGSWFADSTTKYSNFETRPARYVRLVALAEANGQPWTSIAEINVYQASSYTAPQPGLGRWGPTIDLPIVPAAAAIEPTSGRVLMWSSYRNDAFGGSPGGVTLTSSWDPSSGIVSDRTVTVTKHDMFCPGISMDGNGQIVVTGGNDAKKTSLYDSPSDSWVPGPDMQVARGYQSSATMSDGRVFTIGGSWSGGIFEKNGEVYSPSSKTWTSLPNAKVNPMLTADKQGLYRSDNHAWLFGWKKGSVFQAGPSTAMNWYYTSGSGDVKSAGKRQSNRGVAPDAMCGNAVMYDAVQGKILTFGGSPDYQDSDATTNAHIITLGEPGSTPKTVFASNGLYFARTFHTSVVLPDGSTFITGGQRRGIPFEDSTPVLTPEIYVPEQDTFYKQNPNSIVRVYHSISLLLPDGRVFNGGGGLCGDCTTNHFDAQIFTPNYLYDSNGNLATRPKITRTSTQSVKVGGRVTISTDYSIRKASLIRYGTATHTVNTDQRRIPLTLMNNGGNSYSFQVPSDTGIALPGYWMLFVINSAGVPSVASTIRVTQ
notes: C-terminal His6 tag kept (pET21a NdeI/NotI); E. coli BL21(DE3); IMAC
What is called Km is the concentration of substrate that gives half-maximal velocity. By Vmax is commonly meant the top rate of the reaction or transport when substrate is in excess. As usually defined, the kcat is the number of substrate molecules converted per active site and unit of time at saturation. By kcat/Km is commonly meant the second-order rate constant that governs catalysis at low substrate concentration. For the protein B1, in “purified protein [1]”, the Km worked out at 20 ± 2.3 mM, the Vmax turned out to be 43 µmol/min/mg, the kcat is 49 s⁻¹ and the kcat/Km came out at 2500 M⁻¹ s⁻¹. Moreover, in the series “purified protein [2]”, the Km stood at 39 ± 1.7 mM, the Vmax was found to be 67 µmol/min/mg, the kcat is 77 s⁻¹ and the kcat/Km turned out to be 2000 M⁻¹ s⁻¹.
